Results on two molecules are retold here after US20250002610A1 (Genmab, published 2025).

For orientation: EC50 means the concentration that produces a half-maximal response. Broadly, the EC50 (read off the curve) is the midpoint of the concentration-response curve.

Test [1] has as its target T1, human FAPα (Fibroblast activation protein alpha), cell surface expressed (human, UniProt Q12884 1-760).
T1 construct: Endogenous on human lung fibroblasts and CAFs
T1 sequence: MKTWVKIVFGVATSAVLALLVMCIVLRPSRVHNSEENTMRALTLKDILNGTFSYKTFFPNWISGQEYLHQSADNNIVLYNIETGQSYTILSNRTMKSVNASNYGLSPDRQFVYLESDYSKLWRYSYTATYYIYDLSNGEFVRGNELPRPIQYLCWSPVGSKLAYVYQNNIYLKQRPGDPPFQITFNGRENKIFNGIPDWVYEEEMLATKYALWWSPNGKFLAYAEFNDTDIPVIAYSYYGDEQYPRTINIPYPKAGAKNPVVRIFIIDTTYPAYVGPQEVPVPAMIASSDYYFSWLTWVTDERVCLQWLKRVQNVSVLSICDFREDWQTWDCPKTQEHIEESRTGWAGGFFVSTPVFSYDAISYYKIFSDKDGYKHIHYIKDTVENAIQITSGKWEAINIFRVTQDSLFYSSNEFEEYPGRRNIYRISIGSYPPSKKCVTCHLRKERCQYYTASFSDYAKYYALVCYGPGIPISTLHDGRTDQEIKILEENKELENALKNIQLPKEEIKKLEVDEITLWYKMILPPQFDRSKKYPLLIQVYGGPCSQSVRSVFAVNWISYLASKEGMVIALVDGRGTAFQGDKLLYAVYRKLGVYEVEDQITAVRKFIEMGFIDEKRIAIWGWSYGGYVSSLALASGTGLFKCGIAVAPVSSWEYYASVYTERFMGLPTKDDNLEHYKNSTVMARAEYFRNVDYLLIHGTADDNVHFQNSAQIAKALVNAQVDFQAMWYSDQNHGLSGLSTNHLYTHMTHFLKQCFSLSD
Briefly: flow cytometry, human lung fibroblasts, n = 1. Here is the method: (§1) Human lung fibroblasts and CAFs (50,000 cells/well) were seeded in 96-Well round bottom plates (Greiner Bio-one, Cat #650101). Antibody dilutions were prepared using fluorescence-activated cell sorting (FACS) buffer, consisting of phosphate buffer saline (PBS, Lonza, Cat #BE17-517Q)+1% Bovine Serum Albumin (BSA, Roche, Cat #10735086001)+0.02% Sodium Azide (Bio-World, Cat #41920044-3). Plates were centrifuged, supernatant was removed, cells were resuspended in 50 μL of human Fc Block (BD, Cat #564220, diluted 1:100 in FACS buffer) and 50 μL of viability stain TO-PRO-3 Iodide (Thermo Fisher, Cat #T3605, diluted 1: 25,000 in FACS buffer), and incubated for 15 min at 4° C. Plates were washed three times with FACS buffer. Plates were centrifuged, supernatant was removed, cells were resuspended in 50 μL of antibody dilutions (concentration range 90-0.0005 μg/mL, three-fold dilution steps using FACS buffer) of BisG1-FAPα-FERL/DR4-FERR, BisG1-FAPα-FERL/b12-FERR, BisG1-b12-FERL/b12-FERR (top six concentrations only for CAFs culture) or IgG1-FAPα-FERL (top four concentrations only for CAFs culture) and incubated for 30 min at 4° C. Cells were washed three times with FACS buffer and resuspended in 50 μL of Fluorescein isothiocyanate (FITC)-labeled polyclonal antibody goat anti-mouse IgG1 (Jackson Immuno Research, Cat #109-096-097, diluted 1:100 in FACS buffer). After 30 min incubation at 4° C., cells were washed twice with FACS buffer and resuspended in FACS buffer. Antibody binding to viable cells (TO-PRO-3 negative) was analyzed by flow cytometry on a FACSCelesta™ (BD biosciences) and data were processed using FlowJo_v10.8.1 (FlowJo LLC). Geomean fluorescence intensity, gMFI, was determined and visualized using GraphPad Prism. Binding curves were analyzed using nonlinear regression analysis. The concentration (pg/mL) at which 50% of the maximal effect was observed (EC₅₀) was derived from the fitted curves.
(§2) Binding of FAPα-targeting monoclonal antibody clones, IgG1-FAPα-FEAL and IgG1-FAP5-FEAL, and bispecific antibodies carrying a binding arm derived from the two FAPα-binding clones (BisG1-FAPα-FEAL/b12-FEAR and BisG1-FAP5-FEAL/b12-FEAR) to human lung fibroblasts, which endogenously express FAPα, was compared and analyzed by flow cytometry.
A general note: Flow cytometry measures light scatter and fluorescence of single cells or particles in a stream.

Test [2] addresses T1, human FAPα (Fibroblast activation …). Briefly: flow cytometry, human lung fibroblasts, n = 2. The procedure: as §1, with “After 30 min incubation at 4° C., cells were washed twice with FACS buffer and resuspended in FACS buffer.” left out, “The concentration (pg/mL) at which 50% of the maximal effect was observed (EC₅₀) was derived from the fitted curves.” left out
as §2

The target in test [3] is T2, human DR4 with death domain deletion on ExpiCHO-S cells (human). The experiment in a line: flow cytometry, ExpiCHO-S cells expressing human DR4, n = 1. Here is the method:
(§3) Binding of BisG1-FAPα-FERL/DR4-FERR, BisG1-DR4-FEAL/b12-FEAR and IgG1-DR4-FERR to DR4 of various species commonly used for nonclinical toxicology studies was assessed by flow cytometry using ExpiCHO-S cells transiently expressing DR4 from different animal species. In contrast to other species, rodents only express one DR which has highest homology with human DR5. Therefore, ExpiCHO-S cells transiently expressing rat and mouse DR protein were used instead. All DR constructs lack the intracellular DD to avoid apoptosis of transfected cells upon DR(4) activation. IgG1-b12 was used as negative control.

Test [4] addresses T2, human DR4 with death domain deletion on …. The experiment in a line: flow cytometry, ExpiCHO-S cells expressing human DR4, n = 2. The procedure:
as §3

For test [5] the target is unchanged. The experiment in a line: flow cytometry, ExpiCHO-S cells expressing human DR4, average ± SEM.
For test [6], the target named is T3, cynomolgus monkey DR4 with death domain deletion on ExpiCHO-S cells (cynomolgus monkey (Macaca fascicularis)).
T3 construct: also called cynomolgus DR4
T3 chain: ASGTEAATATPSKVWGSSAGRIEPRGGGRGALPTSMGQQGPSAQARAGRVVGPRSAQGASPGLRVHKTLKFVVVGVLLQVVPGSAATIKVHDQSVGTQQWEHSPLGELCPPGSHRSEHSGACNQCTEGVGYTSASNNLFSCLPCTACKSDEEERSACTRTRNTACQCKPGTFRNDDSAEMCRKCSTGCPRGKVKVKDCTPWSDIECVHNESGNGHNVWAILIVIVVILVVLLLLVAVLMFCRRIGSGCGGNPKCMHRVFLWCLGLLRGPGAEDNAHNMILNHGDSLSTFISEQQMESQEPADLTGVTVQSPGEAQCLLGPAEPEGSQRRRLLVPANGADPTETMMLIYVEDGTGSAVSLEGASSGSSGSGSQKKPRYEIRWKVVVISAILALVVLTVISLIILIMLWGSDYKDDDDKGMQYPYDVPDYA
The experiment in a line: flow cytometry on ExpiCHO-S cells transiently expressing cynomolgus monkey DR4 (death domain deleted), gMFI PE.

B1: IgG1-FAP5-FEAL (antibody)
heavy: QVQLQQSGAELARPGASVNLSCLASGYTFTNNGINWLKQRTGQGLEWIGEIYPRSTNTLYNEKFKGKATLTADRSSNTAYMELRSLTSEDSAVYFCARTLTAPFAFWGQGTLVTVSSASTKGPSVFPLAPSSKSTSGGTAALGCLVKDYFPEPVTVSWNSGALTSGVHTFPAVLQSSGLYSLSSVVTVPSSSLGTQTYICNVNHKPSNTKVDKRVEPKSCDKTHTCPPCPAPEFEGGPSVFLFPPKPKDTLMISRTPEVTCVVVAVSHEDPEVKFNWYVDGVEVHNAKTKPREEQYNSTYRVVSVLTVLHQDWLNGKEYKCKVSNKALPAPIEKTISKAKGQPREPQVYTLPPSREEMTKNQVSLTCLVKGFYPSDIAVEWESNGQPENNYKTTPPVLDSDGSFLLYSKLTVDKSRWQQGNVFSCSVMHEALHNHYTQKSLSLSPG
light: QIVLTQSPAIMSASPGELVTMTCSASSGVNFMHWYQQLSGTSPKRWIFDTSKLASGVPARFSGSGSGTSYSLTISSMEAEDAATYYCQQWSFNPPTFGGGTKLEIKRTVAAPSVFIFPPSDEQLKSGTASVVCLLNNFYPREAKVQWKVDNALQSGNSQESVTEQDSKDSTYSLSSTLTLSKADYEKHKVYACEVTHQGLSSPVTKSFNRGEC
notes: Prior art clone FAP5 (US20090304718A1) with FEAL constant region
As for B1, the EC50 was determined as 0.15 µg/mL in test [1] and 0.2 µg/mL in test [2].

B2: BisG1-DR4-FEAL/b12-FEAR (bispecific antibody, human IgG1, kappa, lambda)
heavy 1: QVQLQESGPGLVKPSGTLSLTCAVSGGSISSYSWWSWIRQPPGKGLEWIGELYHSGSTNYNPSLKSRVTISVDKSKNQFSLKLRSVTAADTAVYYCVRGVATIDYWGQGTLVTVSSASTKGPSVFPLAPSSKSTSGGTAALGCLVKDYFPEPVTVSWNSGALTSGVHTFPAVLQSSGLYSLSSVVTVPSSSLGTQTYICNVNHKPSNTKVDKRVEPKSCDKTHTCPPCPAPEFEGGPSVFLFPPKPKDTLMISRTPEVTCVVVAVSHEDPEVKFNWYVDGVEVHNAKTKPREEQYNSTYRVVSVLTVLHQDWLNGKEYKCKVSNKALPAPIEKTISKAKGQPREPQVYTLPPSREEMTKNQVSLTCLVKGFYPSDIAVEWESNGQPENNYKTTPPVLDSDGSFLLYSKLTVDKSRWQQGNVFSCSVMHEALHNHYTQKSLSLSPG
light 1: QSALTQPPSASGSPGQSVTISCTGTSSDVGGYNFVSWYQQDPGKAPKLLIYEVTKRPSGVPDRFSGSKSGNTASLTVSGLQAEDEADYYCSSYAGSNNVMFGGGTKLTVLGQPKAAPSVTLFPPSSEELQANKATLVCLISDFYPGAVTVAWKADSSPVKAGVETTTPSKQSNNKYAASSYLSLTPEQWKSHRSYSCQVTHEGSTVEKTVAPTECS
heavy 2: QVQLVQSGAEVKKPGASVKVSCQASGYRFSNFVIHWVRQAPGQRFEWMGWINPYNGNKEFSAKFQDRVTFTADTSANTAYMELRSLRSADTAVYYCARVGPYSWDDSPQDNYYMDVWGKGTTVIVSSASTKGPSVFPLAPSSKSTSGGTAALGCLVKDYFPEPVTVSWNSGALTSGVHTFPAVLQSSGLYSLSSVVTVPSSSLGTQTYICNVNHKPSNTKVDKRVEPKSCDKTHTCPPCPAPEFEGGPSVFLFPPKPKDTLMISRTPEVTCVVVAVSHEDPEVKFNWYVDGVEVHNAKTKPREEQYNSTYRVVSVLTVLHQDWLNGKEYKCKVSNKALPAPIEKTISKAKGQPREPQVYTLPPSREEMTKNQVSLTCLVKGFYPSDIAVEWESNGQPENNYKTTPPVLDSDGSFFLYSRLTVDKSRWQQGNVFSCSVMHEALHNHYTQKSLSLSPG
light 2: EIVLTQSPGTLSLSPGERATFSCRSSHSIRSRRVAWYQHKPGQAPRLVIHGVSNRASGISDRFSGSGSGTDFTLTITRVEPEDFALYYCQVYGASSYTFGQGTKLERKRTVAAPSVFIFPPSDEQLKSGTASVVCLLNNFYPREAKVQWKVDNALQSGNSQESVTEQDSKDSTYSLSSTLTLSKADYEKHKVYACEVTHQGLSSPVTKSFNRGEC
notes: Fab-arm exchange of IgG1-DR4-FEAL and IgG1-b12-FEAR
As to B2, the EC50 was determined as 1.02 µg/mL in test [3], 1.23 µg/mL in test [4] and 1.12 µg/mL in test [5]. Also, in test [6], the concentration giving a half-maximal response (EC50 (read off the curve)) is approximately 1 µg/mL.
